{"source": "paper PMC7062184", "about": "“A lipoprotein lipase–GPI-anchored high-density lipoprotein–binding protein 1 fusion lowers triglycerides in mice: Implications for managing familial chylomicronemia syndrome” (The Journal of Biological Chemistry, 2019)", "binders": {"B1": {"name": "Soluble GPIHBP1(21–151)-FLAG-His6-Avi (domain or fragment, human)", "chain": "QTQQEEEEEDEDHGPDDYDEEDEDEVEEEETNRLPGGRSRVLLRCYTCKSLPRDERCNLTQNCSHGQTCTTLIAHGNTESGLLTTHSTWCTDSCQPITKTVEGTQVTMTCCQSSLCNVPPWQSSRVQDPTG", "modifications": "biotin on the C-terminal AviTag (BirA) where immobilised or labelled with streptavidin-D2; nonbiotinylated as free competitor in TR-FRET", "notes": "human GPIHBP1, soluble fragment of residues 21–151; also called GPIHBP1-Avi; hGPIHBP1-Avi; source: HEK293T, transfected, purified (Ni-NTA); also co-expressed with LPL and LMF1 in HEK293T and purified as the complex (Ni-NTA, SEC); not shown: AviTag, C-terminal, kept"}, "B2": {"name": "His6-TEV-LPL (N-terminally His6-tagged human lipoprotein lipase) (enzyme)", "chain": "ADQRRDFIDIESKFALRTPEDTAEDTCHLIPGVAESVATCHFNHSSKTFMVIHGWTVTGMYESWVPKLVAALYKREPDSNVIVVDWLSRAQEHYPVSAGYTKLVGQDVARFINWMEEEFNYPLDNVHLLGYSLGAHAAGIAGSLTNKKVNRITGLDPAGPNFEYAEAPSRLSPDDADFVDVLHTFTRGSPGRSIGIQKPVGHVDIYPNGGTFQPGCNIGEAIRVIAERGLGDVDQLVKCSHERSIHLFIDSLLNEENPSKAYRCSSKEAFEKGLCLSCRKNRCNNLGYEINKVRAKRSSKMYLKTRSQMPYKVFHYQVKIHFSGTESETHTNQAFEISLYGTVAESENIPFTLPEVSTNKTYSFLIYTEVDIGELLMLKLKWKSDSYFSWSDWWSSPGFAIQKIRVKAGETQKKVIFCSREKVSHLQKGKAPAVFVKCHDKSLNKKSG", "notes": "human lipoprotein lipase; also called His6-LPL; hLPL; not shown: His6, N-terminal, kept"}, "B3": {"name": "His6-LPL-HA-FLAG (enzyme, human)", "chain": "ADQRRDFIDIESKFALRTPEDTAEDTCHLIPGVAESVATCHFNHSSKTFMVIHGWTVTGMYESWVPKLVAALYKREPDSNVIVVDWLSRAQEHYPVSAGYTKLVGQDVARFINWMEEEFNYPLDNVHLLGYSLGAHAAGIAGSLTNKKVNRITGLDPAGPNFEYAEAPSRLSPDDADFVDVLHTFTRGSPGRSIGIQKPVGHVDIYPNGGTFQPGCNIGEAIRVIAERGLGDVDQLVKCSHERSIHLFIDSLLNEENPSKAYRCSSKEAFEKGLCLSCRKNRCNNLGYEINKVRAKRSSKMYLKTRSQMPYKVFHYQVKIHFSGTESETHTNQAFEISLYGTVAESENIPFTLPEVSTNKTYSFLIYTEVDIGELLMLKLKWKSDSYFSWSDWWSSPGFAIQKIRVKAGETQKKVIFCSREKVSHLQKGKAPAVFVKCHDKSLNKKSG", "notes": "human lipoprotein lipase; Used as the complex with biotinylated hGPIHBP1-Avi in the TR-FRET assay; also called His6-hLPL-HA-FLAG; source: HEK293T, co-transfected with GPIHBP1 and LMF1, complex purified (Ni-NTA, SEC); not shown: His6, N-terminal, kept; HA, C-terminal, kept; FLAG, C-terminal, kept"}}, "key": {"His6-LPL-HA-FLAG [1]": {"molecular_target": "T1, His6-LPL-HA-FLAG (human)", "T1 chain": "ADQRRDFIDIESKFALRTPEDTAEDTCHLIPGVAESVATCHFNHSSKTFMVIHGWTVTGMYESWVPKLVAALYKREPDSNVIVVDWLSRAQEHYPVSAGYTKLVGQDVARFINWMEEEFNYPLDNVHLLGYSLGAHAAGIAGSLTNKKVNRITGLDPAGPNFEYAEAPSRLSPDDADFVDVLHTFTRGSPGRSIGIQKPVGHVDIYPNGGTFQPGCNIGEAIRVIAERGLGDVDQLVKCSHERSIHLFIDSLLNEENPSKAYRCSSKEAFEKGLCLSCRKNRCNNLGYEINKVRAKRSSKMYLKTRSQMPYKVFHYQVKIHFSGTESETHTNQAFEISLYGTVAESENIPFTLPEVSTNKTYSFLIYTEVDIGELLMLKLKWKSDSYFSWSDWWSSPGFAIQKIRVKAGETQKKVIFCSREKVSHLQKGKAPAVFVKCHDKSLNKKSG", "assay": "FRET"}, "His6-LPL-HA-FLAG [2]": {"molecular_target": "B3", "assay": "FRET or BRET; TR-FRET; 10 nM His6-hLPL-HA-FLAG/biotinylated hGPIHBP1-Avi complex challenged with 1–1000 nM nonbiotinylated ANGPTL4, ANGPTL3 or GPIHBP1, 1 h room temperature; 20 mM HEPES pH 7.4, 100 mM NaCl, 10% heat-inactivated FBS, 5 mM CaCl2; anti-HA-Tb and streptavidin-D2", "conditions": "both partners purified"}, "[3]": {"molecular_target": "B2", "assay": "SEC; His6-LPL, GPIHBP1 and LMF1 co-transfected 3:1:1 in HEK293T; complex captured from the medium by Ni-affinity, then Superdex 200 in 10 mM Tris pH 7.5, 300 mM NaCl; eluted at ~75 kDa", "conditions": "both partners purified"}, "His6-LPL-HA-FLAG [4]": {"molecular_target": "T1, His6-LPL-HA-FLAG", "assay": "FRET; dissociation of LPL(HA)-GPIHBP1(Avi) complex (10 nM)"}, "[5]": {"molecular_target": "B2", "assay": "cell-based or functional assay"}, "[6]": {"molecular_target": "T2, LPL (untagged human lipoprotein lipase) (human)", "T2 chain": "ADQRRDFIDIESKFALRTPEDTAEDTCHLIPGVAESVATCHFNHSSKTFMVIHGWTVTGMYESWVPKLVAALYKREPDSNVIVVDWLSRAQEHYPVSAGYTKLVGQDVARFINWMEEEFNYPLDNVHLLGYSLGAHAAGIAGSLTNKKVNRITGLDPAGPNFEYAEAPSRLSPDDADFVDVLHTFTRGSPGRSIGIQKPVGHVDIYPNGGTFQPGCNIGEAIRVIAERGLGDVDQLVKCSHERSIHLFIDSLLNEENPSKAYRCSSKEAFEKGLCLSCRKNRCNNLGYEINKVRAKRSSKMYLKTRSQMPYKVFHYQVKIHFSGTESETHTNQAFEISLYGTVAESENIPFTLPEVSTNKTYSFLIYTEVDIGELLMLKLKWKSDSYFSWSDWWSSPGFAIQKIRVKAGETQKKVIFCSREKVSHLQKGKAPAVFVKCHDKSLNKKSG", "assay": "cell-based or functional assay"}, "[7]": {"molecular_target": "B1", "assay": "ELISA; 10 nM LPL/GPIHBP1 complex or fusion, biotinylated at the C-terminal AviTag of GPIHBP1, incubated with ANGPTL4 (12-point 2-fold dilution from 100 nM), then applied to a streptavidin-coated MSD plate; LPL and ANGPTL4 detected with specific antibodies", "conditions": "both partners purified"}, "[8]": {"molecular_target": "B1", "assay": "FRET or BRET; TR-FRET; 10 nM His6-hLPL-HA-FLAG/biotinylated hGPIHBP1-Avi complex challenged with 1–1000 nM nonbiotinylated ANGPTL4, ANGPTL3 or GPIHBP1, 1 h room temperature; 20 mM HEPES pH 7.4, 100 mM NaCl, 10% heat-inactivated FBS, 5 mM CaCl2; anti-HA-Tb and streptavidin-D2", "conditions": "both partners purified"}, "His6-LPL-HA-FLAG [9]": {"molecular_target": "T1, His6-LPL-HA-FLAG", "assay": "FRET; competition: dissociation of LPL(HA)/GPIHBP1(Avi) complex"}, "[10]": {"molecular_target": "T3, LPL(28–475)-(G4S)4-hGPIHBP1(21–151)-FLAG-His6-Avi (human, biotin on the C-terminal AviTag (BirA) in ELISA and SPR)", "T3 chain": "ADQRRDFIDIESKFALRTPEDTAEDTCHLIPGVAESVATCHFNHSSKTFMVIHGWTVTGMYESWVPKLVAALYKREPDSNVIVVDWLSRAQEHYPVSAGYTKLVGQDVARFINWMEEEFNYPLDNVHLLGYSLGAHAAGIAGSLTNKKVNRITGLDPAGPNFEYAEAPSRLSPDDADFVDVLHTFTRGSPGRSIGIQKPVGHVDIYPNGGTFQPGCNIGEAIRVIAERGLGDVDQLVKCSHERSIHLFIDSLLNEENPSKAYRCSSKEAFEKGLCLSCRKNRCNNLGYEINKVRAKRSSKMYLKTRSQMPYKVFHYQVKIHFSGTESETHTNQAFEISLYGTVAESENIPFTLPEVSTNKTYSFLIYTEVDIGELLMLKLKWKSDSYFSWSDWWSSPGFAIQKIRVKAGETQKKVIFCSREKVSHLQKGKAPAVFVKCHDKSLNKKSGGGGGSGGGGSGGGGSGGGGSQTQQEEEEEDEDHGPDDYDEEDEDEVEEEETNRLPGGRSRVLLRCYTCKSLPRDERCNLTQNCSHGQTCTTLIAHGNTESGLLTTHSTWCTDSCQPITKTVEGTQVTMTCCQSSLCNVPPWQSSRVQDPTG", "assay": "cell-based or functional assay"}}, "data": [{"binder": "B1", "values": [{"measurement": "IC50", "setting": "His6-LPL-HA-FLAG [1]", "result": 15, "unit": "nM"}, {"measurement": "binding result", "setting": "His6-LPL-HA-FLAG [2]", "result": "binds"}]}, {"binder": "Soluble GPIHBP1(21–151), untagged (domain or fragment, human, human GPIHBP1, soluble fragment of residues 21–151 (part of the extracellular domain); also called untagged GPIHBP1) QTQQEEEEEDEDHGPDDYDEEDEDEVEEEETNRLPGGRSRVLLRCYTCKSLPRDERCNLTQNCSHGQTCTTLIAHGNTESGLLTTHSTWCTDSCQPITKTVEGTQVTMTCCQSSLCNVPPWQSSRVQDPTG", "values": [{"measurement": "stoichiometry N", "setting": "[3]", "result": 1}]}, {"binder": "ANGPTL3(17–460)-FLAG-His6-Avi (natural protein) SRIDQDNSSFDSLSPEPKSRFAMLDDVKILANGLLQLGHGLKDFVHKTKGQINDIFQKLNIFDQSFYDLSLQTSEIKEEEKELRRTTYKLQVKNEEVKNMSLELNSKLESLLEEKILLQQKVKYLEEQLTNLIQNQPETPEHPEVTSLKTFVEKQDNSIKDLLQTVEDQYKQLNQQHSQIKEIENQLRRTSIQEPTEISLSSKPRAPRTTPFLQLNEIRNVKHDGIPAECTTIYNRGEHTSGMYAIRPSNSQVFHVYCDVISGSPWTLIQHRIDGSQNFNETWENYKYGFGRLDGEFWLGLEKIYSIVKQSNYVLRIELEDWKDNKHYIEYSFYLGNHETNYTLHLVAITGNVPNAIPENKDLVFSTWDHKAKGHFNCPEGYSGGWWWHDECGENNLNGKYNKPRAKSKPERRRGLSWKSQNGRLYSIKSTKMLIHPTDSESFE", "values": [{"measurement": "IC50", "setting": "His6-LPL-HA-FLAG [4]", "result": 100, "unit": "nM"}, {"measurement": "IC50 of ANGPTL3-mediated inactivation of 10 nM coexpressed LPL/GPIHBP1 complex, hydrolysis of VLDL", "setting": "[5]", "result": 300, "unit": "nM"}, {"measurement": "IC50 of ANGPTL3-mediated inactivation of 10 nM LPL alone, hydrolysis of VLDL", "setting": "[6]", "result": 8, "unit": "nM"}]}, {"binder": "B2", "values": [{"measurement": "binding result", "setting": "[7]", "result": "binds"}]}, {"binder": "B3", "values": [{"measurement": "binding result", "setting": "[8]", "result": "binds"}]}, {"binder": "ANGPTL4(26–406)-FLAG-His6-Avi (natural protein) QPGPVQSKSPRFASWDEMNVLAHGLLQLGQGLREHAERTRSQLSALERRLSACGSACQGTEGSTDLPLAPESRVDPEVLHSLQTQLKAQNSRIQQLFHKVAQQQRHLEKQHLRIQHLQSQFGLLDHKHLDHEVAKPARRKRLPEMAQPVDPAHNVSRLHRLPRDCQELFQVGERQSGLFEIQPQGSPPFLVNCKMTSDGGWTVIQRRHDGSVDFNRPWEAYKAGFGDPHGEFWLGLEKVHSITGDRNSRLAVQLRDWDGNAELLQFSVHLGGEDTAYSLQLTAPVAGQLGATTVPPSGLSVPFSTWDQDHDLRRDKNCAKSLSGGWWFGTCSHSNLNGQYFRSIPQQRQKLKKGIFWKTWRGRYYPLQATTMLIQPMAAEAAS", "values": [{"measurement": "IC50", "setting": "His6-LPL-HA-FLAG [9]", "result": 18, "unit": "nM"}, {"measurement": "IC50", "setting": "His6-LPL-HA-FLAG [4]", "result": 10, "unit": "nM"}, {"measurement": "IC50 of ANGPTL4-mediated inactivation of 10 nM coexpressed LPL/GPIHBP1 complex, hydrolysis of VLDL", "setting": "[5]", "result": 19, "unit": "nM"}, {"measurement": "IC50 of ANGPTL4-mediated inactivation of 10 nM fusion protein against that of LPL alone, hydrolysis of VLDL", "setting": "[10]", "result": 36, "unit": "fold"}, {"measurement": "IC50 of ANGPTL4-mediated inactivation of 10 nM fusion protein against that of the coexpressed LPL/GPIHBP1 complex, hydrolysis of VLDL", "setting": "[10]", "result": 6, "unit": "fold"}, {"measurement": "IC50 of ANGPTL4-mediated inactivation of 10 nM LPL alone, hydrolysis of VLDL", "setting": "[6]", "result": 3, "unit": "nM"}]}]}
